# According to the supplement of paper PMC9112550, “Optimization of the antimicrobial peptide Bac7 by deep mutational scanning” (BMC Biology, 2022):
# System: Escherichia coli TOP10
# Assay: shrunken log2 fold change of peptide-encoding DNA abundance (4.5 h post-induction vs induction); higher = less antimicrobial activity (less host growth inhibition)
# Details: time post-induction: 4.5 h; library: site-saturation at positions 5, 18, 19, 20
# 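Further: peptides expressed intracellularly from a pBAD plasmid library in pooled LB shake-flask culture, induced with 0.3% L-arabinose, DNA abundance read by NGS, three biological replicates, DESeq2 with apeglm shrinkage.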
row,Sequence,shrunken log2 fold change
1,RRIRGRPPRLPRPRPRPKLMPRP,1
2,RRIRDRPPRLPRPRPRPRENPRP,0.415
3,RRIRCRPPRLPRPRPRPRVHPRP,-0.152
4,RRIRLRPPRLPRPRPRPLKTPRP,-0.0135
5,RRIRMRPPRLPRPRPRPFQYPRP,0.00421
6,RRIRCRPPRLPRPRPRPNAMPRP,0.0678
7,RRIRMRPPRLPRPRPRPHQTPRP,0.184
8,RRIRHRPPRLPRPRPRPFQLPRP,-0.0386
9,RRIRDRPPRLPRPRPRPHFKPRP,-0.148
10,RRIRHRPPRLPRPRPRPSTHPRP,-0.564
11,RRIRKRPPRLPRPRPRPINTPRP,-0.0237
12,RRIRRRPPRLPRPRPRPDNGPRP,-0.0214
13,RRIRIRPPRLPRPRPRPMSKPRP,-0.332
14,RRIRSRPPRLPRPRPRPWVQPRP,0.127
15,RRIRCRPPRLPRPRPRPDNRPRP,-0.132
16,RRIRTRPPRLPRPRPRPPHWPRP,0.333
17,RRIRNRPPRLPRPRPRPQWNPRP,-0.319
18,RRIRKRPPRLPRPRPRPCNLPRP,0.0104
19,RRIRTRPPRLPRPRPRPQHMPRP,-0.518
20,RRIRWRPPRLPRPRPRPRGVPRP,0.756
21,RRIRIRPPRLPRPRPRPFAVPRP,0.0425
22,RRIRCRPPRLPRPRPRPPFDPRP,0.415
23,RRIRVRPPRLPRPRPRPERWPRP,0.615
24,RRIRKRPPRLPRPRPRPVFRPRP,0.278
25,RRIRLRPPRLPRPRPRPRKDPRP,0.0699

row,Sequence,shrunken log2 fold change
1,RRIRPRPPRLPRPRPRPTIPPRP,-0.361
2,RRIRHRPPRLPRPRPRPLRFPRP,-0.172
3,RRIRPRPPRLPRPRPRPDGIPRP,0.0121
4,RRIRQRPPRLPRPRPRPFDWPRP,-0.0369
5,RRIRSRPPRLPRPRPRPERIPRP,-0.065
6,RRIRGRPPRLPRPRPRPLIEPRP,0.801
7,RRIRERPPRLPRPRPRPCAGPRP,-0.0261
8,RRIRSRPPRLPRPRPRPYPNPRP,0.00334
9,RRIRMRPPRLPRPRPRPGAGPRP,1.22
10,RRIRIRPPRLPRPRPRPEEHPRP,0.023
11,RRIRMRPPRLPRPRPRPAPHPRP,1.33
12,RRIRDRPPRLPRPRPRPCPKPRP,-0.048
13,RRIRFRPPRLPRPRPRPRMCPRP,0.0779
14,RRIRKRPPRLPRPRPRPGSQPRP,0.359
15,RRIRFRPPRLPRPRPRPVKDPRP,-0.254
16,RRIRKRPPRLPRPRPRPPDDPRP,1.99
17,RRIRMRPPRLPRPRPRPDGMPRP,1.73
18,RRIRYRPPRLPRPRPRPPRQPRP,0.0146
19,RRIRRRPPRLPRPRPRPVCGPRP,0.75
20,RRIRDRPPRLPRPRPRPGIHPRP,-0.89
21,RRIRLRPPRLPRPRPRPHSNPRP,-0.443
22,RRIRKRPPRLPRPRPRPLEAPRP,0.505
23,RRIRVRPPRLPRPRPRPAVRPRP,0.123
24,RRIRTRPPRLPRPRPRPPGTPRP,0.331
25,RRIRVRPPRLPRPRPRPKGWPRP,0.684

row,Sequence,shrunken log2 fold change
1,RRIRPRPPRLPRPRPRPFILPRP,-0.582
2,RRIRGRPPRLPRPRPRPYLMPRP,-0.0538
3,RRIRQRPPRLPRPRPRPATQPRP,0.176
4,RRIRRRPPRLPRPRPRPWWSPRP,0.105
5,RRIRLRPPRLPRPRPRPTLIPRP,-0.407
6,RRIRERPPRLPRPRPRPHHAPRP,0.0055
7,RRIRSRPPRLPRPRPRPECFPRP,3.03
8,RRIRIRPPRLPRPRPRPNSVPRP,-0.342
9,RRIRIRPPRLPRPRPRPFKWPRP,-0.128
10,RRIRVRPPRLPRPRPRPIFLPRP,-0.157
11,RRIRFRPPRLPRPRPRPFKVPRP,-0.327
12,RRIRGRPPRLPRPRPRPMNNPRP,0.18
13,RRIRSRPPRLPRPRPRPQERPRP,-0.0153
14,RRIRDRPPRLPRPRPRPVQQPRP,-0.00151
15,RRIRARPPRLPRPRPRPEEQPRP,1.97
16,RRIRWRPPRLPRPRPRPMLSPRP,-0.0162
17,RRIRKRPPRLPRPRPRPFLYPRP,-0.436
18,RRIRGRPPRLPRPRPRPRTHPRP,0.666
19,RRIRYRPPRLPRPRPRPPVAPRP,0.0771
20,RRIRARPPRLPRPRPRPSSHPRP,-0.471
21,RRIRYRPPRLPRPRPRPHSEPRP,-0.0168
22,RRIRCRPPRLPRPRPRPCDFPRP,-0.0328
23,RRIRRRPPRLPRPRPRPVMDPRP,-0.0641
24,RRIRIRPPRLPRPRPRPSNHPRP,-1.15
25,RRIRERPPRLPRPRPRPAAKPRP,0.0307

row,Sequence,shrunken log2 fold change
1,RRIRLRPPRLPRPRPRPQHDPRP,-0.0854
2,RRIRSRPPRLPRPRPRPMYLPRP,-0.0356
3,RRIRCRPPRLPRPRPRPEANPRP,0.477
4,RRIRWRPPRLPRPRPRPFYNPRP,-0.242
5,RRIRMRPPRLPRPRPRPDWPPRP,0.637
6,RRIRKRPPRLPRPRPRPLCNPRP,1.06
7,RRIRMRPPRLPRPRPRPFWGPRP,-0.149
8,RRIRRRPPRLPRPRPRPMGFPRP,0.317
9,RRIRHRPPRLPRPRPRPQCPPRP,-0.211
10,RRIRSRPPRLPRPRPRPACHPRP,-0.0735
11,RRIRSRPPRLPRPRPRPRYGPRP,0.0513
12,RRIRPRPPRLPRPRPRPNQDPRP,-0.167
13,RRIRDRPPRLPRPRPRPGRWPRP,0.797
14,RRIRFRPPRLPRPRPRPAMCPRP,-0.596
15,RRIRTRPPRLPRPRPRPLGSPRP,0.0751
16,RRIRTRPPRLPRPRPRPLMMPRP,-0.314
17,RRIRGRPPRLPRPRPRPNICPRP,0.168
18,RRIRLRPPRLPRPRPRPNCLPRP,-0.61
19,RRIRNRPPRLPRPRPRPGWWPRP,-0.0419
20,RRIRWRPPRLPRPRPRPDDPPRP,-0.0101
21,RRIRVRPPRLPRPRPRPEENPRP,0.265
22,RRIRNRPPRLPRPRPRPAGLPRP,-0.118
23,RRIRLRPPRLPRPRPRPFIEPRP,-0.372
24,RRIRYRPPRLPRPRPRPTAYPRP,-0.537
25,RRIRPRPPRLPRPRPRPRPAPRP,0.529

row,Sequence,shrunken log2 fold change
1,RRIRVRPPRLPRPRPRPPNMPRP,-0.316
2,RRIRSRPPRLPRPRPRPMQKPRP,-0.0221
3,RRIRARPPRLPRPRPRPSMYPRP,0.0294
4,RRIRFRPPRLPRPRPRPACIPRP,-0.397
5,RRIRYRPPRLPRPRPRPQHLPRP,-0.262
6,RRIRDRPPRLPRPRPRPPFLPRP,0.0487
7,RRIRCRPPRLPRPRPRPKRTPRP,0.642
8,RRIRVRPPRLPRPRPRPDHQPRP,-0.00679
9,RRIRPRPPRLPRPRPRPRDTPRP,-0.0427
10,RRIRERPPRLPRPRPRPFMMPRP,-0.584
11,RRIRGRPPRLPRPRPRPDWEPRP,0.166
12,RRIRARPPRLPRPRPRPDMEPRP,-0.0243
13,RRIRLRPPRLPRPRPRPEQAPRP,0.0554
14,RRIRYRPPRLPRPRPRPYQQPRP,-0.0715
15,RRIRMRPPRLPRPRPRPDEGPRP,-0.0141
16,RRIRRRPPRLPRPRPRPIFDPRP,0.369
17,RRIRLRPPRLPRPRPRPWVMPRP,-1.02
18,RRIRDRPPRLPRPRPRPRRHPRP,0.172
19,RRIRQRPPRLPRPRPRPYELPRP,-0.695
20,RRIRCRPPRLPRPRPRPAWTPRP,-0.154
21,RRIRDRPPRLPRPRPRPPTPPRP,0.564
22,RRIRERPPRLPRPRPRPYPRPRP,-0.00133
23,RRIRSRPPRLPRPRPRPAGSPRP,-0.209
24,RRIRDRPPRLPRPRPRPHYLPRP,-0.159
25,RRIRLRPPRLPRPRPRPAYAPRP,-0.0747

row,Sequence,shrunken log2 fold change
1,RRIRFRPPRLPRPRPRPGKRPRP,-0.0962
2,RRIRMRPPRLPRPRPRPADTPRP,0.367
3,RRIRMRPPRLPRPRPRPWFGPRP,0.134
4,RRIRQRPPRLPRPRPRPYDFPRP,-0.543
5,RRIRVRPPRLPRPRPRPPFFPRP,0.193
6,RRIRFRPPRLPRPRPRPGLSPRP,-0.0429
7,RRIRRRPPRLPRPRPRPYTCPRP,0.0906
8,RRIRQRPPRLPRPRPRPFIRPRP,-0.00448
9,RRIRSRPPRLPRPRPRPAAVPRP,0.418
10,RRIRGRPPRLPRPRPRPSFFPRP,0.202
11,RRIRHRPPRLPRPRPRPMPMPRP,0.0326
12,RRIRERPPRLPRPRPRPSCVPRP,-0.356
13,RRIRRRPPRLPRPRPRPSCRPRP,0.0338
14,RRIRFRPPRLPRPRPRPIHPPRP,-0.385
15,RRIRVRPPRLPRPRPRPQFRPRP,-1.21
16,RRIRPRPPRLPRPRPRPWNTPRP,-0.0902
17,RRIRWRPPRLPRPRPRPKRNPRP,0.432
18,RRIRIRPPRLPRPRPRPESDPRP,0.052
19,RRIRIRPPRLPRPRPRPFVAPRP,-0.158
20,RRIRQRPPRLPRPRPRPISWPRP,-0.12
21,RRIRARPPRLPRPRPRPMLNPRP,-0.167
22,RRIRQRPPRLPRPRPRPPEIPRP,-0.0671
23,RRIRRRPPRLPRPRPRPELDPRP,0.122
24,RRIRLRPPRLPRPRPRPGREPRP,0.231
25,RRIRMRPPRLPRPRPRPFQQPRP,-0.00146
